Experiments:
[1] = biological target: T1, L1-EN D145A/Y226K (LINE-1 ORF2p endonuclease domain) (human, UniProt O00370 1-238, D145A;Y226K); assay: X-ray crystallography; no Mg2+; 0.1 M MES pH 6.0, 0.2 M NaCl, 30% Jeffamine ED-2003; 2.8 A; Co-crystallization: protein 16-24 mg/ml in 300 mM NaCl, 15 mM HEPES pH 7.5, 2% glycerol, 1 mM TCEP, DNA:protein 1.2:1; crystallization pH 6.0 (dna17) or 4.5 (dna14); temperature not stated; details: protein: recombinant; tags: N-terminal 6xHis-SUMO, cleaved with Ulp1; single-nucleotide T/A overhangs at the ends
[2] = biological target: T1, L1-EN D145A/Y226K (LINE-1 ORF2p …); assay: X-ray crystallography; no Mg2+; 0.1 M sodium acetate pH 4.5, 0.2 M ammonium acetate, 15% PEG 4000; 2.8 A; Co-crystallization: protein 16-24 mg/ml in 300 mM NaCl, 15 mM HEPES pH 7.5, 2% glycerol, 1 mM TCEP, DNA:protein 1.2:1; crystallization pH 6.0 (dna17) or 4.5 (dna14); temperature not stated; details: protein: recombinant; tags: N-terminal 6xHis-SUMO, cleaved with Ulp1; single-nucleotide T/A overhangs at the ends

T1 sequence (O00370 1-238 D145A/Y226K): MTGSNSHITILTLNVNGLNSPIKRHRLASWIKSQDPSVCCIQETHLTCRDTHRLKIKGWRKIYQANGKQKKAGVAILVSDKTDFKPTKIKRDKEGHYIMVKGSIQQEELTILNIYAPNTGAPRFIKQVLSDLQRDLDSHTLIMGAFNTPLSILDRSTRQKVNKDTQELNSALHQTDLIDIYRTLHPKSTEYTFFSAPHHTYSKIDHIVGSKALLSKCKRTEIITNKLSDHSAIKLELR

B1: dna17 (dsDNA)
DNA 1: GCTCCTTTTTAAGGGCTA
DNA 2: AGCCCTTAAAAAGGAGCT
- binding result [1]: binds

B2: dna14 (dsDNA)
DNA 1: GCTCCTTTTTAAGGA
DNA 2: CCTTAAAAAGGAGCT
- binding result [2]: binds
